{
  "source": "patent US20230136228A1",
  "about": "(LAMKAP BIO ALPHA, published 2023)",
  "binders": {"B1": {"name": "AB17L3-1/N (bispecific antibody, human IgG1, kappa, lambda, L234A L235A)", "heavy": "EVQLVESGGGLVQPGGSLKLSCAASGFTFNTYAMNWVRQAPGKGLEWVGRIRSKYNNYATYYADSVKDRFTISRDDSKNTAYLQMNSLKTEDTAVYYCVRHGNFGNSYVSWFAYWGQGTLVTVSSASTKGPSVFPLAPSSKSTSGGTAALGCLVKDYFPEPVTVSWNSGALTSGVHTFPAVLQSSGLYSLSSVVTVPSSSLGTQTYICNVNHKPSNTKVDKRVEPKSCDKTHTCPPCPAPEAAGGPSVFLFPPKPKDTLMISRTPEVTCVVVDVSHEDPEVKFNWYVDGVEVHNAKTKPREEQYNSTYRVVSVLTVLHQDWLNGKEYKCKVSNKALAAPIEKTISKAKGQPREPQVYTLPPSREEMTKNQVSLTCLVKGFYPSDIAVEWESNGQPENNYKTTPPVLDSDGSFFLYSKLTVDKSRWQQGNVFSCSVMHEALHNHYTQKSLSLSPG", "light 1": "EIVLTQSPATLSLSPGERATLSCRASQSVNSNLNWYQQKPGQAPRLLIYHGSNRATGIPARFSGSGSGTDFTLTISSLEPEDFAVYYCQQFDYFKEHNTFGQGTKVEIKRTVAAPSVFIFPPSDEQLKSGTASVVCLLNNFYPREAKVQWKVDNALQSGNSQESVTEQDSKDSTYSLSSTLTLSKADYEKHKVYACEVTHQGLSSPVTKSFNRGEC", "light 2": "QTVVTQEPSLTVSPGGTVTLTCRSSTGAVTTSNYANWFQQKPGQAPRGLIGGTNKRAPGTPARFSGSLLGGKAALTLSGAQPEDEAEYYCALWYKQRWVFGGGTKLTVLGQPKAAPSVTLFPPSSEELQANKATLVCLISDFYPGAVTVAWKADSSPVKAGVETTTPSKQSNNKYAASSYLSLTPEQWKSHRSYSCQVTHEGSTVEKTVAPTECS", "notes": "Kappa-lambda body, lead optimization wave 1"}},
  "biological_target": "T1, human CEACAM5 (carcinoembryonic antigen, CEA), cell surface (human, UniProt P06731 35-685)",
  "T1 construct": "whole, on cells; also called CD66e",
  "T1 sequence (looked up)": "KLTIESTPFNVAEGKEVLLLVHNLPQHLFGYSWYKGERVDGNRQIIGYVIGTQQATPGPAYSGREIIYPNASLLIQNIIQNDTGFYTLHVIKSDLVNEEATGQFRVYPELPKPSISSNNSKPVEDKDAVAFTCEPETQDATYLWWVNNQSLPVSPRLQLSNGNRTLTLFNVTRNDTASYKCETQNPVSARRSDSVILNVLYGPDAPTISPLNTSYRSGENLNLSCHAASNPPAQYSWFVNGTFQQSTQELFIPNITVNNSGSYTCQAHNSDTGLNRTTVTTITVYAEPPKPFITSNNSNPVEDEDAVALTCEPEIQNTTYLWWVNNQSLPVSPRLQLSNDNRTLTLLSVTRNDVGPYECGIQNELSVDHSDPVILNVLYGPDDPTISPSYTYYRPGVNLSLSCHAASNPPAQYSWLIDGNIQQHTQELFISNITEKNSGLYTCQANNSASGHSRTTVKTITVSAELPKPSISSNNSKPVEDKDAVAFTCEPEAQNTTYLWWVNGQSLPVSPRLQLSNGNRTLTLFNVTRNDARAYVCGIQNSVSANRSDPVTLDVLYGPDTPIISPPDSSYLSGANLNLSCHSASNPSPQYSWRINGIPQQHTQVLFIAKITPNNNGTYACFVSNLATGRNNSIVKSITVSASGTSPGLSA",
  "assay": "flow cytometry, MKN-45 and/or HPAF-II cells",
  "data": [
    {"binder": "B1", "values": [
      {"measurement": "binding higher than TCB2014 (at 100 nM)", "result": "≥ 40", "unit": "%"}
    ]}
  ]
}
